Values quoted from earlier work in PMC2845642.
pKd: −log10 of the molar value. Like-named read-outs stand apart in the source and are kept apart here.

Legend:
CD28 (Homo sapiens) [1] = target: CD28 (Homo sapiens) (UniProt P10747)
CD28 (Homo sapiens) [2] = target: CD28 (Homo sapiens) (UniProt P10747); remark: listed apart in the source

| Substance | pKd (CD28 (Homo sapiens) [1]) | pKd (CD28 (Homo sapiens) [2]) |
| --- | --- | --- |
| CD86 (from UniProt P42081) | 4.70 | – |
| CD80 (from UniProt P33681) | – | 5.40 |
